{"source": "patent US20220289837A1", "about": "“Cystic Fibrosis Transmembrane Conductance Regulator Stabilizing Agents” (VIB VZW, priority 2019, published 2022)", "format_in_all_cases": "cell-based", "key": {"[1]": {"target": "T1, 3HA-F508del-CFTR (Homo sapiens, UniProt P13569, DEL508-508)", "T1 construct": "expressed in transfected cells", "T1 sequence (P13569 with tags, fused parts or gaps DEL508-508)": "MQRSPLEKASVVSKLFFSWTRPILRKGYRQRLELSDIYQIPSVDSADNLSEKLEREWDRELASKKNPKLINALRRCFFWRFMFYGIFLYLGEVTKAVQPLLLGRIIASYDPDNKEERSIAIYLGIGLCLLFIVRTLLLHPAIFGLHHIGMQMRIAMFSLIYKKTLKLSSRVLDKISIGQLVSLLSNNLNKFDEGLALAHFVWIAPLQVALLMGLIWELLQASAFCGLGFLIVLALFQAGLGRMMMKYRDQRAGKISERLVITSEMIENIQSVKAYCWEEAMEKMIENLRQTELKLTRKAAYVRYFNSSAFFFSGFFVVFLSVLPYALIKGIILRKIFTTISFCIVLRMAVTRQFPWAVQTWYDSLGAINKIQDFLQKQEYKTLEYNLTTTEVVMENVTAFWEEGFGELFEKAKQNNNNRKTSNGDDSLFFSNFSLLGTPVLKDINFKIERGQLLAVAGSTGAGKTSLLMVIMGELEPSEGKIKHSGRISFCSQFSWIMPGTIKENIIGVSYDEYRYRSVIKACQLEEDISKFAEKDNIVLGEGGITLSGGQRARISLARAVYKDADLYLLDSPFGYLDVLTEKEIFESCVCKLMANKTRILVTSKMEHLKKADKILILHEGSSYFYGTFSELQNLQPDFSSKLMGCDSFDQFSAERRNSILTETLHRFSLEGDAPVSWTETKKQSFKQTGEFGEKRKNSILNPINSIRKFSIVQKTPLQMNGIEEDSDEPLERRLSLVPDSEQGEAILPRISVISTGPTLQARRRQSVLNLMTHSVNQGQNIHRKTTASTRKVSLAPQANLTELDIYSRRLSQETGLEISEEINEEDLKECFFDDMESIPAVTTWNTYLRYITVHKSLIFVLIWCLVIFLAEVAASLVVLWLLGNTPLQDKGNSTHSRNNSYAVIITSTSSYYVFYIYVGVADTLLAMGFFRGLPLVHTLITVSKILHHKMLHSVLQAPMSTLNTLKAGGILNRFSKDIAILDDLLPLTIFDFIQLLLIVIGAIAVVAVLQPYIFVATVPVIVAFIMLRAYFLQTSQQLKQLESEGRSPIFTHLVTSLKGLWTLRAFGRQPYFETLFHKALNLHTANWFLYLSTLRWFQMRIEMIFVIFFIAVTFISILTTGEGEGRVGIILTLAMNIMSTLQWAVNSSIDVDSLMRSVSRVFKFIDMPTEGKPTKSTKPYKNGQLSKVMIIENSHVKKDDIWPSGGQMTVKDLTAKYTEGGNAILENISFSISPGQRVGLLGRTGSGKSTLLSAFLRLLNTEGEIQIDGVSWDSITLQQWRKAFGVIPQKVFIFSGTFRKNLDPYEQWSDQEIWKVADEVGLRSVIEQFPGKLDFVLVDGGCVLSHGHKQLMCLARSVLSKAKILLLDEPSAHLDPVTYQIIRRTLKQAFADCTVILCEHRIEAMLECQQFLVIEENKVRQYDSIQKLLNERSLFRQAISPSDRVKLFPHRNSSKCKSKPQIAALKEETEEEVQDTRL", "experiment": "Cell-surface expression of F508del-CFTR in HEK-293T cells by flow cytometry", "settings": "extracellular 3HA-tag, Nb transfected and/or VX-809", "procedure": "(§1) HEK293T cells expressing F508del-CFTR with an engineered extracellular 3HA tag were transiently transfected with the stabilizing Nbs, as well as control Nbs. The effect on F508del mutant CFTR expression and maturation was measured by flow cytometry, Western Blot and fluorescence microscopy. Next, the effect of the transfection of each Nb was measured in the absence or presence of the correctors VX-809 (lumacaftor) or VX-661 (Tezacaftor).\n(§2) Stable cell lines were generated by lentiviral transduction as described in (Ensinck, et al. 2020). CFTR variants were cloned to contain a triple hemagglutinin (3HA) tag in the fourth extracellular loop (EC-loop) of CFTR (Sharma, et al. 2004) for maturation and trafficking studies. For HS-YFP quenching studies, double stable cell lines were generated, co-expressing stable HS-YFP (Galietta, et al. 2001)."}, "[2]": {"target": "T1, 3HA-F508del-CFTR", "experiment": "CFTR protein maturation by Western Blot in 3HA-F508del-CFTR HEK-293T cells", "settings": "for band C (fully glycosylated mature CFTR): FIG. 15, Nb transfected and/or VX-809; for mature CFTR protein band (band C): FIG. 17, Nb transfected and/or VX-661", "procedure": "as §1, §2\nCell extracts were separated by SDS-PAGE on 7.5% polyacrylamide gel and transferred to nitrocellulose membrane (Bio-Rad) for immunodetection. After blocking for 1 h with 5% bovine serum albumin (BSA) in Tris-buffered saline added 0.05% Tween-20 (TBST), CFTR was detected using monoclonal antibody mAb 596, IgG2b (CFTR Antibody Distribution Program, dilution 1:46) for 1 h in blocking buffer. Blot was washed 3 times 5 min and incubated with anti-mouse-HRP antibody (Millipore, catalogue number: AP308P, 0.2 μg/ml) for 1 h in TBST. Membrane was washed 3 times for 5 min. CFTR was visualized by chemiluminescence using Luminata Forte Western HRP Substrate (Millipore) and detected with ImageQuant 400 (GE Healthcare)."}, "[3]": {"target": "T1, 3HA-F508del-CFTR", "experiment": "Immunostaining of cell-surface expression in F508del-CFTR HEK-293T cells", "procedure": "as §2\nFor PM staining, cells were blocked with 1% BSA-PBS and incubated with HA.11 antibody (#901515, Biolegend 1:1000) at 4° C. on living cells. Next, cells were fixed (4% PFA) followed by Alexa-488 secondary antibody (#A-11001, Thermo Fischer Scientific, 1:500). Nuclei were stained with DAPI (4′,6-diamidino-2-fenylindole, #D1306, Thermo Fischer Scientific, 1:2000) and sections analyzed by confocal microscopy."}}}
{"molecule": "D12: NBD1-specific CFTR-stabilizing nanobody, SEQ ID NO:2, binds epitope 1 (protein, D12 Nanobody amino acid sequence) VHH: QVQLQESGGGLVQAGSSLRLACAATGSIRSINNMGWYRQAPGKQRGMVAIITRVGNTDYADSVKGRFTISRDNAKNTVYLQMNSLKPEDTATYYCHAEITEQSRPFYLTDDYWGQGTQVTVSS", "values": [{"measurement": "cell-surface expression of F508del-CFTR", "setting": "[1]", "value": "moderate increase in surface expression"}]}
{"molecule": "G5: NBD1-binding nanobody, SEQ ID NO:5, same binding site as T2a, T27 and D12 (protein, G5 Nanobody amino acid sequence) VHH: QVQLQESGGGLVQAGGSLRLACAATGSIRNINTMGWYRQAPGKQRDMVAFITRAGNTDYADSVKGRFTISRDNARNTVYLRMNSLKPEDTATYYCHAEIAERSRPFYLTDDYWGQGTQVTVSS", "values": [{"measurement": "cell-surface expression of F508del-CFTR", "setting": "[1]", "value": "moderate increase in surface expression"}]}
{"molecule": "T8: nanobody, SEQ ID NO:7, binds epitope 2 including F508, stabilizes WT CFTR but not F508del (protein, T8 Nanobody amino acid sequence) VHH: QVQLQESGGGLVQPGGSLRLSCAASGSTSSINAMGWYRQAPGKQREPVAISSSGGDTRYAEPVKGRFTISRDNAQNKVYLQMNSLKPEDTAVYYCWLNWGRTSVNSWGQGTQVTVSS", "values": [{"measurement": "cell-surface expression of F508del-CFTR", "setting": "[1]", "value": "No effect"}, {"measurement": "band C (fully glycosylated mature CFTR)", "setting": "[2]", "value": "no effect"}]}
{"molecule": "G3a: non-stabilizing nanobody, SEQ ID NO:50, recognizes the structurally diverse region of NBD1 (protein, G3a Nanobody) VHH: QVQLQESGGGLVQAGGSLRLSCTASGRAFSWYVMGWFRQAPGKEREFVATVSGNGSRRDYADSVKGRFTISRDNAKNTVYLQMNSLKPEDTAVYYCAASSTYYYTDPEKYDYWGQGTQVTVSS", "values": [{"measurement": "cell-surface expression of F508del-CFTR", "setting": "[1]", "value": "No effect"}, {"measurement": "band C (fully glycosylated mature CFTR)", "setting": "[2]", "value": "no effect"}, {"measurement": "mature CFTR protein band (band C)", "setting": "[2]", "value": "detectable"}]}
{"molecule": "T2a: NBD1-specific CFTR-stabilizing nanobody, SEQ ID NO:3, binds epitope 1 (protein, T2a Nanobody amino acid sequence) VHH: QVQLQESGGGLVQAGGSLRLSCAASGSIFRIDAMGWYRQAPGKQRELVAHSTSGGSTDYADSVKGRFTISRDNAKNTVYLQMNSLKPEDTAVYYCNADVRTRWYASNNYWGQGTQVTVSS", "values": [{"measurement": "cell-surface immunostaining", "setting": "[3]", "value": "moderate staining"}, {"measurement": "cell-surface expression of F508del-CFTR", "setting": "[1]", "value": "moderate increase in surface expression"}, {"measurement": "band C (fully glycosylated mature CFTR)", "setting": "[2]", "value": "detectable"}, {"measurement": "mature CFTR protein band (band C)", "setting": "[2]", "value": "only a minor effect"}]}
